These are literature values, as cited in patent US20190382746.

Data set [1] deals with PP7 coat protein (Pseudomonas phage PP7). The conditions noted are these: CITED? source not stated; cited from earlier work.
The subject of data set [2] is RSG1.2 peptide (synthetic). The conditions noted are these: CITED? source not stated; cited from earlier work.

PP7 aptamer (25 nt): the Kd in data set [1] was 2 nM.

Consider RSG1.2 aptamer (HIV RRE, 34 nt), for which the Kd in data set [2] is 6 nM.
